Changes are numbered by the printed parent chain. Names may count otherwise.
B1: MS103240H795-TT20/M103202L1045-SK1 (antibody, human IgG1, kappa)
heavy: QVQLVESGGGLVQPGGSLRLSCAVSGIDLSHDDISWVRQAPGKGLEWVSIISYAGSTYYASWAKGRLTISKDTSKNQVVLTMTNMDPVDTATYYCARGVPAYSHGGDLWGQGTLVTVSSASTKGPSVFPLAPSSKSTSGGTAALGCLVKDYFPEPVTVSWNSGALTSGVHTFPAVLQSSGLYSLSSVVTVPSSSLGTQTYICNVNHKPSNTKVDKKVEPKSCDKTHTCPPCPAPELLGGDSVFLFPPKPKDVLMISRTPEVTCVVVDVSHEDPEVKFNWYVDGVEVHNAKTKPREEQYNSTYRVVSVLPVLHRDWLNGKEYKCKVSNKALPKPIEKTISKAKGQRREPQVYTLPPSREEMTKNQVSLTCLVKGFYPSDIAVEWESNGQPENNYKTTPPVLDSDGSFFLYSKLTVDKSRWQQGNVFSCSVMHEALHNHYTQKSLSLSP
light: DIVMTQSPATLSLSPGERATLSCTTSQSVYHENWLSWFQQKPGQPPKLLIYWASTLAYGVPSRFSGSGSGTDFTLTISSLQPEDAATYYCAGGYGGGRYAFGQGTKVEIKRTVAAPSVFIFPPSDEQLKSGTASVVCLLNNFYPREAKVQWKVDNALQSGNSQESVTEQDSKDSTYSLSSTLTLSKADYEKHKVYACEVTHQGLSSPVTKSFNRGEC
notes: CH = SG1 with P238D/T250V/T307P/Q311R/A330K/P343R (EU numbering)
B2: MS103240H795-TT23/M103202L1045-SK1 (antibody, human IgG1, kappa)
heavy: B1 heavy with V266I, R345P, D415K
light: B1 light
notes: CH = SG1 with P238D/T250V/V264I/T307P/Q311R/A330K/D413K (EU numbering)
B3: MS103240H795-TT22/M103202L1045-SK1 (antibody, human IgG1, kappa)
heavy: B1 heavy with V266I
light: B1 light
notes: CH = SG1 with P238D/T250V/V264I/T307P/Q311R/A330K/P343R (EU numbering)
B4: MS103240H795-TT21/M103202L1045-SK1 (antibody, human IgG1, kappa)
heavy: B1 heavy with R345P, D415K
light: B1 light
notes: CH = SG1 with P238D/T250V/T307P/Q311R/A330K/D413K (EU numbering)
B5: MS103240H795-TT24/M103202L1045-SK1 (antibody, human IgG1, kappa)
heavy: B1 heavy with S269A
light: B1 light
notes: CH = SG1 with P238D/T250V/S267A/T307P/Q311R/A330K/P343R (EU numbering)
B6: MS103240H795-TT27/M103202L1045-SK1 (antibody, human IgG1, kappa)
heavy: B1 heavy with L236Y, R345P, D415K
light: B1 light
notes: CH = SG1 with L234Y/P238D/T250V/T307P/Q311R/A330K/D413K (EU numbering)
B7: MS103240H795-TT30/M103202L1045-SK1 (antibody, human IgG1, kappa)
heavy: B1 heavy with V266I, S269A
light: B1 light
notes: CH = SG1 with P238D/T250V/V264I/S267A/T307P/Q311R/A330K/P343R (EU numbering)
B8: MS103240H795-TT26/M103202L1045-SK1 (antibody, human IgG1, kappa)
heavy: B1 heavy with L236Y
light: B1 light
notes: CH = SG1 with L234Y/P238D/T250V/T307P/Q311R/A330K/P343R (EU numbering)
B9: MS103240H795-TT34/M103202L1045-SK1 (antibody, human IgG1, kappa)
heavy: B1 heavy with L236Y, V266I, S269A
light: B1 light
notes: CH = SG1 with L234Y/P238D/T250V/V264I/S267A/T307P/Q311R/A330K/P343R (EU numbering)
B10: MS103240H795-TT25/M103202L1045-SK1 (antibody, human IgG1, kappa)
heavy: B1 heavy with S269A, R345P, D415K
light: B1 light
notes: CH = SG1 with P238D/T250V/S267A/T307P/Q311R/A330K/D413K (EU numbering)
B11: MS103240H795-TT31/M103202L1045-SK1 (antibody, human IgG1, kappa)
heavy: B1 heavy with V266I, S269A, R345P, D415K
light: B1 light
notes: CH = SG1 with P238D/T250V/V264I/S267A/T307P/Q311R/A330K/D413K (EU numbering)
B12: MS103240H795-TT28/M103202L1045-SK1 (antibody, human IgG1, kappa)
heavy: B1 heavy with L236Y, S269A
light: B1 light
notes: CH = SG1 with L234Y/P238D/T250V/S267A/T307P/Q311R/A330K/P343R (EU numbering)
B13: MS103240H795-TT32/M103202L1045-SK1 (antibody, human IgG1, kappa)
heavy: B1 heavy with L236Y, V266I
light: B1 light
notes: CH = SG1 with L234Y/P238D/T250V/V264I/T307P/Q311R/A330K/P343R (EU numbering)
B14: MS103240H795-TT33/M103202L1045-SK1 (antibody, human IgG1, kappa)
heavy: B1 heavy with L236Y, V266I, R345P, D415K
light: B1 light
notes: CH = SG1 with L234Y/P238D/T250V/V264I/T307P/Q311R/A330K/D413K (EU numbering)
B15: MS103240H795-TT29/M103202L1045-SK1 (antibody, human IgG1, kappa)
heavy: B1 heavy with L236Y, S269A, R345P, D415K
light: B1 light
notes: CH = SG1 with L234Y/P238D/T250V/S267A/T307P/Q311R/A330K/D413K (EU numbering)

Columns and labels:
[1] = target: T1, human FcγRIIaH extracellular domain, C-terminal His-tag (human, UniProt P12318 34-217); test: SPR (BIACORE), antibody captured, soluble FcgR as analyte, 25C
T1 construct: also called human FcγRIIa (type H); FcgRIIaH; not shown: His-tag added to the C-terminus
T1 sequence: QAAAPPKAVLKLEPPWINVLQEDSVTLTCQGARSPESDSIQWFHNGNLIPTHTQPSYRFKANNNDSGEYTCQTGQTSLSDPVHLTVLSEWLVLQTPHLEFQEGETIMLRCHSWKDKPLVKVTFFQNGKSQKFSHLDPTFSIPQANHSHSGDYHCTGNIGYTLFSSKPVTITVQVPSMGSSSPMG
Procedure: (§1) The kinetic analysis of interactions between these antibodies and FcγR was carried out using BIACORE® T200 or BIACORE® 4000 (GE Healthcare). HBS-EP+ (GE Healthcare) was used as the running buffer, and the measurement temperature was set to 25° C. A chip produced by immobilizing Protein A. Protein A/G or mouse anti-human IgG kappa light chain (BD Biosciences) onto a Series S Sensor Chip CM4 or CM5 (GE Healthcare) by the amine-coupling method was used. […] After the measurement, the antibody captured on the chip was washed off by allowing reaction with 10 mM glycine-HCl, pH1.5 and 25 mM NaOH so that the chip was regenerated and used repeatedly. The sensorgrams obtained as measurement results were analyzed by the 1:1 Langmuir binding model using the BIACORE® Evaluation Software to calculate the binding rate constant ka (L/mol/s) and dissociation rate constant kd (l/s), and the dissociation constant KD (mol/L) was calculated from these values. […] Regarding such interactions, KD values were calculated using the following 1:1 binding model described in BIACORE® T100 Software Handbook BR1006-48 Edition AE.
(§2) Human FcγRIIb-enhanced Fc variants with anti-myostatin variable region were constructed and their affinity for human FcγRs was evaluated. […] In addition, substitutions (Q311R/D413K or […]) were also introduced. The variants were expressed using M103202L1045-SK1 as light chain and their affinity to human FcγRs was analyzed according to the method shown in Example 34.

[2] = target: T2, human FcγRIIaR extracellular domain, C-terminal His-tag (human, UniProt P12318 34-217); test: as above
T2 construct: also called human FcγRIIa (type R); FcgRIIaR; not shown: His-tag added to the C-terminus
T2 chain: T1 sequence with H134R
Procedure: as §1, §2

[3] = target: T3, human FcγRIIIaV extracellular domain, C-terminal His-tag (human, UniProt P08637 17-208); test: as above
T3 construct: also called FcgRIIIaV; not shown: His-tag added to the C-terminus
Procedure: as §1, §2

[4] = target: T4, human FcγRIIb extracellular domain, C-terminal His-tag (human, UniProt P31994 43-217); test: as above
T4 construct: also called FcgRIIb; not shown: His-tag added to the C-terminus
T4 sequence: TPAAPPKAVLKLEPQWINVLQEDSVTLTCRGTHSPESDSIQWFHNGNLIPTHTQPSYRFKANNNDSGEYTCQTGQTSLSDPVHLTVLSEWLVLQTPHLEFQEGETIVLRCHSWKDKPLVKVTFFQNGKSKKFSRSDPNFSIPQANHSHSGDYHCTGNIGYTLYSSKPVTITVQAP
Procedure: as §1, §2

[5] = target: T1, human FcγRIIaH extracellular domain, …; test: SPR; KD of SG1 divided by KD of variant;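 further: relative to parent M103205H795-SG1 carrying the SG1 human heavy chain constant region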
Procedure: as §1, §2

[6] = target: T2, human FcγRIIaR extracellular domain, …; test: SPR; KD of SG1 divided by KD of variant;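 further: relative to parent M103205H795-SG1 carrying the SG1 human heavy chain constant region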
Procedure: as §1, §2

[7] = target: T3, human FcγRIIIaV extracellular domain, …; test: SPR; KD of SG1 divided by KD of variant;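 further: relative to parent M103205H795-SG1 carrying the SG1 human heavy chain constant region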
Procedure: as §1, §2

[8] = target: T4, human FcγRIIb extracellular domain, …; test: SPR; KD of SG1 divided by KD of variant;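 further: relative to parent M103205H795-SG1 carrying the SG1 human heavy chain constant region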
Procedure: as §1, §2

T3 sequence (P08637 17-208 F176V): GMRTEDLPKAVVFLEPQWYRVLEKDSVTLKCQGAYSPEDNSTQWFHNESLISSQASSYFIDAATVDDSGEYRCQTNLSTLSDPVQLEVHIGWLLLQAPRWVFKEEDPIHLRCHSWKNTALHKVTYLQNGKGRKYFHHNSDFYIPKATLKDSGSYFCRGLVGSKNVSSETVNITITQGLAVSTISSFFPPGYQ

Binder	Kd [1] [µM]	Kd [2] [µM]	Kd [3] [µM]	Kd [4] [µM]	KD fold (SG1 = 1) [5] [fold]	KD fold (SG1 = 1) [6] [fold]	KD fold (SG1 = 1) [7] [fold]	KD fold (SG1 = 1) [8] [fold]
B1	91	28	84	1.4	0.008	0.04	0.01	4.1
B2	100	48	450	0.55	0.007	0.02	0.002	10.5
B3	60	21	72	0.59	0.013	0.05	0.011	9.8
B4	56	20	85	1.3	0.013	0.06	0.01	4.5
B5	49	13	260	1.2	0.015	0.08	0.003	4.8
B6	52	14	130	0.82	0.014	0.08	0.006	7.1
B7	150	14	66	0.57	0.005	0.08	0.012	10.2
B8	69	21	200	1.1	0.011	0.05	0.004	5.3
B9	22	8.9	96	0.49	0.034	0.12	0.008	11.8
B10	22	13	140	1	0.034	0.08	0.006	5.8
B11	110	19	290	0.56	0.007	0.06	0.003	10.4
B12	48	7.7	82	0.85	0.016	0.14	0.01	6.8
B13	50	12	110	0.4	0.015	0.09	0.007	14.5
B14	42	12	440	0.36	0.018	0.09	0.002	16.1
B15	37	7.5	89	0.81	0.02	0.15	0.009	7.2

— US20200317768A1 (published 2020)
